This is an account of results in patent US20140087995A1 (published 2014).

Numbered stars: 1 amine (or outer) side, 2 acyl side, 3 side chain; on linkers, the order of the positions; unused ones are H or OH. Bridge positions count the residues as written; N and C are the ends. Side chains are listed from the residue outwards. Ends that are not written are not given here. * marks the point of attachment. C20 diacid = O=C(O)CCCCCCCCCCCCCCCCCCC(=O)*; γGlu = O=C(O)[C@H](CCC(=O)[*:2])N[*:1]; AEEA = NCCOCCOCC(=O)O

T1: human calcitonin receptor (human, UniProt P30988 25-474)
T1 construct: whole, on cells; also called hCTR; hCT
T1 sequence (looked up): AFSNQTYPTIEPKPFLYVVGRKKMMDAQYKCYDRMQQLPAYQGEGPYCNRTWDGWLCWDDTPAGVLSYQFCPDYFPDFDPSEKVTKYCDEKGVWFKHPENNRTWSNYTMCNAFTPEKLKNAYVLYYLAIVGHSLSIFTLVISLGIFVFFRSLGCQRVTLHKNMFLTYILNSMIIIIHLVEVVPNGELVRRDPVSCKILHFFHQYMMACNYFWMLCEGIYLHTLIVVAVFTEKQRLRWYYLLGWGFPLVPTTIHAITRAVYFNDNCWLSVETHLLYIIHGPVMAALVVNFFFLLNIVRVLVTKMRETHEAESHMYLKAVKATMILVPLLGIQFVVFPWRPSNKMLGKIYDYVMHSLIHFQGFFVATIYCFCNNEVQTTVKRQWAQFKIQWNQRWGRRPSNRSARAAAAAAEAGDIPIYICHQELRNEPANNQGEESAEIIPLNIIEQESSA

B1: N^α1-[(4S)-4-carboxy-4-(19-carboxynonadecanoylamino)butanoyl]-[Glu14,Arg17,Pro21,Pro28,Glu35]-h-amylin (peptide)
peptide: {C20 diacid-γGlu}-KCNTATCATQRLAEFLRHSSPNFGAILPSTNVGSETY-NH2
modifications: disulfide 2-7
notes: also called compound 33
B2: N^α1-[(4S)-4-carboxy-4-(19-carboxynonadecanoylamino)butanoyl]-[His14,Arg17,Pro21,Pro27,Glu35]-h-amylin (peptide)
peptide: {C20 diacid-γGlu}-KCNTATCATQRLAHFLRHSSPNFGAIPSSTNVGSETY-NH2
modifications: disulfide 2-7
SMILES: CC[C@H](C)[C@H](NC(=O)[C@H](C)NC(=O)CNC(=O)[C@H](Cc1ccccc1)NC(=O)[C@H](CC(N)=O)NC(=O)[C@@H]1CCCN1C(=O)[C@H](CO)NC(=O)[C@H](CO)NC(=O)[C@H](Cc1c[nH]cn1)NC(=O)[C@H](CCCNC(=N)N)NC(=O)[C@H](CC(C)C)NC(=O)[C@H](Cc1ccccc1)NC(=O)[C@H](Cc1c[nH]cn1)NC(=O)[C@H](C)NC(=O)[C@H](CC(C)C)NC(=O)[C@H](CCCNC(=N)N)NC(=O)[C@H](CCC(N)=O)NC(=O)[C@@H](NC(=O)[C@H](C)NC(=O)[C@@H]1CSSC[C@H](NC(=O)[C@H](CCCCN)NC(=O)CC[C@H](NC(=O)CCCCCCCCCCCCCCCCCCC(=O)O)C(=O)O)C(=O)N[C@@H](CC(N)=O)C(=O)N[C@@H]([C@@H](C)O)C(=O)N[C@@H](C)C(=O)N[C@@H]([C@@H](C)O)C(=O)N1)[C@@H](C)O)C(=O)N1CCC[C@H]1C(=O)N[C@@H](CO)C(=O)N[C@@H](CO)C(=O)N[C@H](C(=O)N[C@@H](CC(N)=O)C(=O)N[C@H](C(=O)NCC(=O)N[C@@H](CO)C(=O)N[C@@H](CCC(=O)O)C(=O)N[C@H](C(=O)N[C@@H](Cc1ccc(O)cc1)C(N)=O)[C@@H](C)O)C(C)C)[C@@H](C)O
notes: also called compound 30
B3: N^α1N^α1-[(4S)-4-carboxy-4-(19-carboxynonadecanoylamino)butanoyl]-[Glu14,Arg17,Pro21,Pro27,Glu35]-h-amylin (peptide)
peptide: {C20 diacid-γGlu}-KCNTATCATQRLAEFLRHSSPNFGAIPSSTNVGSETY-NH2
modifications: disulfide 2-7
SMILES: CC[C@H](C)[C@H](NC(=O)[C@H](C)NC(=O)CNC(=O)[C@H](Cc1ccccc1)NC(=O)[C@H](CC(N)=O)NC(=O)[C@@H]1CCCN1C(=O)[C@H](CO)NC(=O)[C@H](CO)NC(=O)[C@H](Cc1c[nH]cn1)NC(=O)[C@H](CCCNC(=N)N)NC(=O)[C@H](CC(C)C)NC(=O)[C@H](Cc1ccccc1)NC(=O)[C@H](CCC(=O)O)NC(=O)[C@H](C)NC(=O)[C@H](CC(C)C)NC(=O)[C@H](CCCNC(=N)N)NC(=O)[C@H](CCC(N)=O)NC(=O)[C@@H](NC(=O)[C@H](C)NC(=O)[C@@H]1CSSC[C@H](NC(=O)[C@H](CCCCN)NC(=O)CC[C@H](NC(=O)CCCCCCCCCCCCCCCCCCC(=O)O)C(=O)O)C(=O)N[C@@H](CC(N)=O)C(=O)N[C@@H]([C@@H](C)O)C(=O)N[C@@H](C)C(=O)N[C@@H]([C@@H](C)O)C(=O)N1)[C@@H](C)O)C(=O)N1CCC[C@H]1C(=O)N[C@@H](CO)C(=O)N[C@@H](CO)C(=O)N[C@H](C(=O)N[C@@H](CC(N)=O)C(=O)N[C@H](C(=O)NCC(=O)N[C@@H](CO)C(=O)N[C@@H](CCC(=O)O)C(=O)N[C@H](C(=O)N[C@@H](Cc1ccc(O)cc1)C(N)=O)[C@@H](C)O)C(C)C)[C@@H](C)O
notes: also called compound 22
B4: N^ε1-[2-[2-[2-(19-carboxynonadecanoylamino)ethoxy]ethoxy]acetyl]-[Arg17,Pro21,Pro27]-h-amylin (peptide)
peptide: K([AEEA-C20 diacid])CNTATCATQRLANFLRHSSPNFGAIPSSTNVGSNTY-NH2
modifications: disulfide 2-7; N-terminus assumed
SMILES: CC[C@H](C)[C@H](NC(=O)[C@H](C)NC(=O)CNC(=O)[C@H](Cc1ccccc1)NC(=O)[C@H](CC(N)=O)NC(=O)[C@@H]1CCCN1C(=O)[C@H](CO)NC(=O)[C@H](CO)NC(=O)[C@H](Cc1c[nH]cn1)NC(=O)[C@H](CCCNC(=N)N)NC(=O)[C@H](CC(C)C)NC(=O)[C@H](Cc1ccccc1)NC(=O)[C@H](CC(N)=O)NC(=O)[C@H](C)NC(=O)[C@H](CC(C)C)NC(=O)[C@H](CCCNC(=N)N)NC(=O)[C@H](CCC(N)=O)NC(=O)[C@@H](NC(=O)[C@H](C)NC(=O)[C@@H]1CSSC[C@H](NC(=O)[C@@H](N)CCCCNC(=O)COCCOCCNC(=O)CCCCCCCCCCCCCCCCCCC(=O)O)C(=O)N[C@@H](CC(N)=O)C(=O)N[C@@H]([C@@H](C)O)C(=O)N[C@@H](C)C(=O)N[C@@H]([C@@H](C)O)C(=O)N1)[C@@H](C)O)C(=O)N1CCC[C@H]1C(=O)N[C@@H](CO)C(=O)N[C@@H](CO)C(=O)N[C@H](C(=O)N[C@@H](CC(N)=O)C(=O)N[C@H](C(=O)NCC(=O)N[C@@H](CO)C(=O)N[C@@H](CC(N)=O)C(=O)N[C@H](C(=O)N[C@@H](Cc1ccc(O)cc1)C(N)=O)[C@@H](C)O)C(C)C)[C@@H](C)O
notes: also called compound 43
B5: N^α1-[(4S)-4-carboxy-4-[[(4S)-4-carboxy-4-(19-carboxynonadecanoylamino)butanoyl]amino]butanoyl]-[Glu14,Arg17,Pro21,Pro27,Pro37]-h-amylin (peptide)
peptide: {C20 diacid-γGlu-γGlu}-KCNTATCATQRLAEFLRHSSPNFGAIPSSTNVGSNTP-NH2
modifications: disulfide 2-7
SMILES: CC[C@H](C)[C@H](NC(=O)[C@H](C)NC(=O)CNC(=O)[C@H](Cc1ccccc1)NC(=O)[C@H](CC(N)=O)NC(=O)[C@@H]1CCCN1C(=O)[C@H](CO)NC(=O)[C@H](CO)NC(=O)[C@H](Cc1c[nH]cn1)NC(=O)[C@H](CCCNC(=N)N)NC(=O)[C@H](CC(C)C)NC(=O)[C@H](Cc1ccccc1)NC(=O)[C@H](CCC(=O)O)NC(=O)[C@H](C)NC(=O)[C@H](CC(C)C)NC(=O)[C@H](CCCNC(=N)N)NC(=O)[C@H](CCC(N)=O)NC(=O)[C@@H](NC(=O)[C@H](C)NC(=O)[C@@H]1CSSC[C@H](NC(=O)[C@H](CCCCN)NC(=O)CC[C@H](NC(=O)CC[C@H](NC(=O)CCCCCCCCCCCCCCCCCCC(=O)O)C(=O)O)C(=O)O)C(=O)N[C@@H](CC(N)=O)C(=O)N[C@@H]([C@@H](C)O)C(=O)N[C@@H](C)C(=O)N[C@@H]([C@@H](C)O)C(=O)N1)[C@@H](C)O)C(=O)N1CCC[C@H]1C(=O)N[C@@H](CO)C(=O)N[C@@H](CO)C(=O)N[C@H](C(=O)N[C@@H](CC(N)=O)C(=O)N[C@H](C(=O)NCC(=O)N[C@@H](CO)C(=O)N[C@@H](CC(N)=O)C(=O)N[C@H](C(=O)N1CCC[C@H]1C(N)=O)[C@@H](C)O)C(C)C)[C@@H](C)O
notes: also called compound 14

One experiment has as its target T1, human calcitonin receptor. The experiment in a line: ratio of IC50 at hCTR to IC50 at the human amylin receptor (reference). The method, boiled down: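 Scintillation proximity competition binding on cell membranes at 35 ng/μL with SPA beads, in 50 mM Hepes pH 7.4, 1 mM CaCl2, 5 mM MgCl₂, 0.1% OA, 0.02% Tween20. Incubated 120 min at 25° C with shaking. IC₅₀ from one-site competition fit.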
For the molecule B1, the “Ratio hCT/hAmylin binding” value worked out at 3.9.
Same read-out and setting: to B2 belongs 23.6.
As to B3, the “Ratio hCT/hAmylin binding” value came out at 12.3.
Take B4: the “Ratio hCT/hAmylin binding” value turned out to be 34.7.
Same read-out and setting: in the case of B5 it was 2.2.

Another experiment deals with T1, human calcitonin receptor. Nature of the experiment: SPA competition binding, membranes with human calcitonin receptor, displacement of 125I-calcitonin (Assay VII). The method, boiled down: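 BHK hCTR membranes 35 ng/μL + SPA beads 0.05 mg/well; buffer 50 mM Hepes pH 7.4, 1 mM CaCl2, 5 mM MgCl₂, 0.1% OA, 0.02% Tween20. 120 min, 25° C., shaking. Scintillation count; IC50 by one-site binding competition.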
Background: In a radioligand displacement assay an active substance lowers the binding of a labelled ligand.
In the case of B1, the IC50 (commonly the concentration that inhibits the measured activity by half) was found to be 3.61 nM.
Still for that read-out and setting: in the case of B2 it was 21.6 nM; in that of B3, 9.73 nM.
On the same count and under the same terms, to B4 belongs 2.64 nM; to B5, 0.432 nM.
